First the molecules themselves.
B1: Mip1-myc (wild type) [S. pombe] / FLAG-tagged Tor2 kinase [S. pombe] (parent complex)
chain 1: MNDRISEVSGSSRARRSVLSYGTTETGSDRYTENSNIATENGVDTASSMIDGIQSGFPQPRHGFEEEYNNAEYINMLEQVFYMYYTDKRHRGVISKKNAEPTETIHDWRMRERLKTVSAALLVCLNIGVDPPDVIKPNPAAKYECWIDPFSLPASKALEAIGKNLQQQYETLSMRTRYRHYLDPAIEEVKKLCIGQRRNAKEERILFHYNGHGVPMPTASGEIWVFNKNYTQYIPVSLYDLQSWLGAPCIYVYDCSAAGNIIVNFNRFAEQRDKEALRIAKQNPNVLAMPSHTSCIQLAACGPKETLPMNPDLPADLFTSCLTSPIEISVRWYVLQNPFPNKLNLNMLLKIPGRLQDRRTPLGELNWIFTAITDTIAWNVFPKHLFRRLFRQDLMVAALFRNFLLAERIMLVHSCHPQSSPELPPTHDHPMWNSWDLAIDNCLSQLPDMLDAESKGIAYEYKHSTFFSEQLTAFEVWLSQGLISRKPPDQLPLVLQVLLSQVHRLRALILLSKFLDLGVWAVDLALSIGIFPYVLKLLQSPAIELKPVLVFIWARILAVDDSCQADLLKDNGYGYFVQILNPNSSIFPSSNISEHRAMCAFILSVFCRGFPQGQLACLNPQVLSHCLSHLNSPDSLLRQWACLCISQLWENYSEAKWSGTRDNAHVKLAEIIVDSVPEVRASVLTAFTTFLGFPEKTEEVVAVETYIAIAALAALSDASPLVRHELVIFLSHFVVNYKKQLMVVAYESSLADILEKKNHNSISASTIYETVWQAVLVLAADPSIEISLAAEAIINYVYQSMLNSELRESFLAFLLQHLPALHKASLSKDTDTNSVTSDPKPHPFVPSVSENKILNRSFSLTRSLKGLALSLAGSDRASELLSLNGENKPAESNLNHLTSAKVPGPPAFNELEYQSELDMPLTSYLFDWSRKYFTEPQMRPNEDDEPGSICYNQRLWRRNRNEKLIYRTRPLAEYSTNGRWNQQLMTFNNTIAPRKLMFHQFEDQLITLGDKDIIQVWDWRRNRCLNSFKTSASATTNVTDMQLLNEDDVALLMTGSSDGTIKLYRDYENEKVELVTSWNSLSDLVFGDRNASLLMSWQQNCGHLLVAGDVRVIRIWDASKEICYANLPVRSSNSITSLTSDLVGCNIIVAGFSDGVLRVYDKRLPARDSLTDVWKEHSSEIVNVEMQSSGMRELISASSDGEVKLWDIRMNHSLQTFSTDNSGLTSLTVHSHAPVYATGSSNQSIKIWDTLGQNINTFRENPRFLNQPKPSSLMCLKFHPHHLLLACGDNTDSRVNLYSCTKNEIHTDSPNEF
chain 2: MKEFPGLKSRNEEIRNKAANDLYEYVIAYSRELSGEALVQFNNDVNKYVYTLIHSTDPLDRLAGVTAINRLIDYEGEDTTRITRFANYLRIILPGTDQKATVLAAKALGRLAVPGGALTSEFVNFEVKRALEWLQGERNENRRYAAVLILKELAKNTSTLIYAHIDSIFELLWHGLRDPKVTIRIASADALSEFLKIVRQRDSSIRLQWYTSILNEAQRGVAQGSSDYIHGSLLVYRQLFLKAGMFMHERYREVSDIILQFRDHKDLLIRKTVTELIATLAAYNPDEFVSNYLHVCMLHLLNLLKKENVKMLAFATIGKVAVAITNSIIPYLDPICDSIKESLKIHIRNKSASDAAIFQCISLLSIALGQAFSNYAYDLFDLIFASGLSEASYRALSDLAHNIPPLLPVIQERLLDMLSKILSGRPFIPPGCPPQYVARSLKSSKSASLKTGFFPNDVYILALKVLGNFDFSGYILNEFVKDCVVVYLENNDPEVRKTASITCSQLFARDPILSQTSDHAIQVVAEVLEKLLTVGICDTVPDIRLTVLNSLDSRFNKHLAQADKIRLLFIAINDENFAVRESALRIIGRLNVYNPAYVMPYLRKIMLKTLTILDYSTIIRTKEENAKLLCLLIAAAPRLIESHVEPILQILLPKAKDSSSIVAASIVNSLGEICQISGEVIVPFIKDLMPLIIEALQDQSSPIRRAAALKALGNLSSSTGYVIDPYIEFPSLLDILIGITKTEQDITIRRETIKLIGTLGALDPNRHRVLEKGTEKVVPEQKNIPPDISLLMSGIGPSSDEYYPTVVITALMSILKDPSLTIHHTAVIQAVMYIFKTMGLRCAPFLSQIIPEFIAVMRTCPTNILEFYFQQLSILVLIVRQHIRSFLPDLFKLIKDFWNPHSNLQFTILSLIESLARAMQGEFKPYLPSLLVMMLQIFDSDVSVDSVSTKKVLHAFIVFGDTLADYFHMLLDPILRLYERNDVSIGIKESIMITIGRLSMVINLSEYASRIIHPVMRMLSCNNASLIRVSMDTVCALIYQLNVDFAIFIPMIDKCLKMNGVTHETYSILVEQFLQEQPLPIKLNPYEKYDKPKLDVVASAADITSKKLPVNQEILRNAWEASQRSTKDDWQEWIRRLGVALLRESPSHALRACAALAAAYQPLARDLFNASFVSCWSELYDHFQEELVKSIEIALTSPHISPEIIQILLNLAEFMEHDDKPLPIDIRTLGAYAAKCHAFAKALHYKELEFIEEELVTKPSVDTIEALISINNQLQQPDAAIGILKHAQQHDKMNLKETWYEKLQRWEDALSAYEKREAAGAGNFEITMGKLRCLHALGEWDRLSQLAQENWIHAGHDARRYIAPLSVAAAWGLGQWEQMDEYISVMKSESPDKAFFNAIVALHRSQFEEAASYITRARDLLDTELTALVGESYNRAYSVAVRVQMLSELEEIITYKKAEDKPEVREMIKKTWVRRLKGCQRNVDVWQRMLRIRSLVISPRDNMEMWIKFANLCRKSGRISLAKKSLNLLLEDDENLDNSLVLKKTHPSIVYANLKFLWAVDDKRKALNSMQEFTSQLISDINVDPALFVQSTSVNTQKSQEEIQYYFHLLARCYHKQGQWQQEIENNWSEGSFDGVLQSYMYATQFDSKWYKAWHSWALANFEAVKFLEQSEEQIPSAAYEQYIIPAVKGFFKSIALSKGNLQDTLRLLNLWFKFGNNSNVINTLNVGISTVNIDIWLDVIPQLIARIHASSLSVRKSVHQLLSDVGRAHPQALVYPLTVAAKSQSSARQNAALAIMDSLKTHSPRLVEQARLVSHELIRAAILWHEQWHEGLEEASRLYFGDHNIEGMFAVLRPLHEMLERGPETLREISFQQAFGRDLVEARDCCIRFEQTGDISDLNQAWDLYYQVFKKIRKQLPQLTTLDLQYVSPKLLHVHDLELAVPGTYVSGKPVIRIVKFYPTFNVITSKQRPRRLSIKGSDGKDYQYVLKGHEDIRQDERVMQLFGLCNNLLLADPETFKRLLSIQRYPVIPLSPDSGLLGWVLDSDTLHVLIRDYRESRKILLNIEHRLIIQMAPDYDRLTLLQKVEVFEYALLSTTGQDLYRVLWLKSRSSEAWLNRRTNYSRTLAVMSMVGYILGLGDRHPSNLMLDRYTGNIIHIDFGDCFEVAMHREKFPEKIPFRLTRMLVNAMEVSGIEGTFRITCEHVMRVLRTNKESVMAVLEAFVYDPLINWRLAPAYSPSIDEKQSNEPNTLLGETIDGLHRKRLNEEGITLEERQKPEILNQRAITVLNRVSNKLTGRDFKPQQQLDVPSQVEKLILQATSIENLCLCYIGWCSFW

The assay covers variants of B1. Description: co-immunoprecipitation (anti-FLAG affinity beads) with quantified immunoblot; n=3 independent experiments; parent: 1; read off a plot. In general terms: In western blotting, separated proteins are transferred to a membrane and probed.
For the variant chain 1 R358A, the ratio to parent is ~0.42.

As for chain 1 R504A, the ratio to parent is ~0.53.

With chain 1 Y533A, the ratio to parent is ~0.9.

Source of the values: publication PMC8542387 (2021).
